What was measured:
[1] = published reports; cited from earlier work
[2] = DMSO; cited from earlier work
hair germ = test: subcutaneous injection of WNT activator 2 recombinant protein in mice, hair germ activation and hair cycle; format: in vivo; conditions: for hair germ activation: mice (FIG. 12); for telogen to anagen transition: mice (FIG. 13)
Text: To further investigate the effect of WNT activator 2 in hair germ activation, mice received subcutaneous injection of WNT activator 2 recombinant protein.

Row | Molecule | toxicity [1] | solubility [2] | hair germ activation (hair germ) | hair germ activation (hair germ; listed as WNT activator 2) | telogen to anagen transition (hair germ) | telogen to anagen transition (hair germ; listed as WNT activator 2)
1 | c1cc(-c2cnn3cc(-c4ccc(OCCN5CCCCC5)cc4)cnc23)ccn1 [Dorsomorphin] | low toxicity | soluble in DMSO | – | – | – | –
2 | WNT activator 2 recombinant protein: recombinant Wnt7a protein (wingless-type MMTV integration site family, member 7A), called WNT activator 2 (protein, UniProt O00755 32-349, looked up) Protein Wnt-7a: LGASIICNKIPGLAPRQRAICQSRPDAIIVIGEGSQMGLDECQFQFRNGRWNCSALGERTVFGKELKVGSREAAFTYAIIAAGVAHAITAACTQGNLSDCGCDKEKQGQYHRDEGWKWGGCSADIRYGIGFAKVFVDAREIKQNARTLMNLHNNEAGRKILEENMKLECKCHGVSGSCTTKTCWTTLPQFRELGYVLKDKYNEAVHVEPVRASRNKRPTFLKIKKPLSYRKPMDTDLVYIEKSPNYCEEDPVTGSVGTQGRACNKTAPQASGCDLMCCGRGYNTHQYARVWQCNCKFHWCCYVKCNTCSERTEMYTCK | – | – | induces precocious hair germ activation | induced precocious hair germ activation | promotes precocious telogen to anagen transition | promoted precocious telogen to anagen transition
